Experimental data taken from patent US20230265179A1 (TWIST BIOSCIENCE, published 2023).

T1: CD40L over-expressed on Expi293 cells (UniProt P29965 1-261, limits assumed)
T1 construct: whole, on cells; also called cytokine over-expressing Expi293 cells
T1 sequence (looked up): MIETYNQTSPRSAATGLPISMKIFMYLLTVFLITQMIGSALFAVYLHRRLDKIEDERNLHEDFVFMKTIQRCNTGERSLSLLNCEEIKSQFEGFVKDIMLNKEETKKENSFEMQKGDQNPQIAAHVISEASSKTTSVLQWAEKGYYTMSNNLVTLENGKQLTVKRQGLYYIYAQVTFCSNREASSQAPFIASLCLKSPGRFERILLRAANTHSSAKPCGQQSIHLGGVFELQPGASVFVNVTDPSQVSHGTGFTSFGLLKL


Biological target: T1, CD40L over-expressed on Expi293 cells
Experiment: flow cytometry, 100 nM antibody, CD40L-Expi293 vs parent Expi293 cells;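 further: ratio is the mean fluorescence intensity on CD40L-overexpressing Expi293 cells divided by the mean fluorescence intensity on parental Expi293 cells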
Method: All incubations and washes were in buffer containing PBS+1% BSA. MFI Ratio is defined by the mean fluorescence intensity (MFI) of the cytokine over-expressing Expi293 cell over the Expi293 parent cell. […] EC50 was calculated in GraphPad Prism.

100 nM FACS (MFI Ratio)	Binder
0.4 ratio	CD40L-173 (antibody, V domains shown, IgG2) VH: EVQLLESGGGLVQPGGSLRLSCAASGGYNFRDYMHWVRQAPGKGLEWVATISGGGINTYYPDSVKGRFTISRDNSKNTLYLQMNSLRAEDTAVYYCAKDLGQGFDYWGQGTLVTVSS VL: DIQMTQSPSSLSASVGDRVTITCQSSQSVYSNNELSWYQQKPGKAPKLLIYGRNKRPSGVPSRFSGSGSGTDFTLTISSLQPEDFATYYCSQGTHVPPTFGQGTKVEIK
0.6 ratio	CD40L-170 (antibody, V domains shown, IgG2) VH: EVQLLESGGGLVQPGGSLRLSCAASGGYNFKDYMHWVRQAPGKGLEWVSSIGRHGGRTYYADSVKGRFTISRDNSKNTLYLQMNSLRAEDTAVYYCAKDLGQGFDYWGQGTLVTVSS VL: DIQMTQSPSSLSASVGDRVTITCRASQDVSSGVAWYQQKPGKAPKLLIYQMSHLASGVPSRFSGSGSGTDFTLTISSLQPEDFATYYCSSQDTVTRVLGQGTKVEIK
8.9 ratio	CD40L-177 (antibody, V domains shown, IgG2) VH: EVQLLESGGGLVQPGGSLRLSCAASGFTFASYEMTWVRQAPGKGLEWVSSITSEGGSTYYADSVKGRFTISRDNSKNTLYLQMNSLRAEDTAVYYCAKPDVLFDYWGQGTLVTVSS VL: DIQMTQSPSSLSASVGDRVTITCRASQDVSSGVAWYQQKPGKAPKLLIYDASNLQSGVPSRFSGSGSGTDFTLTISSLQPEDFATYYCSQSTRVPPTFGQGTKVEIK
0.4 ratio	CD40L-174 (antibody, V domains shown, IgG2) VH: EVQLLESGGGLVQPGGSLRLSCAASGFDFSDYEMSWVRQAPGKGLEWVSSITSEGGSTYYADSVKGRFTISRDNSKNTLYLQMNSLRAEDTAVYYCAKPGRLFDYWGQGTLVTVSS VL: DIQMTQSPSSLSASVGDRVTITCRASESVEYHGTSLMHWYQQKPGKAPKLLIYGRNKRPSGVPSRFSGSGSGTDFTLTISSLQPEDFATYYCQAWDRDTGVFGQGTKVEIK
0.5 ratio	CD40L-172 (antibody, V domains shown, IgG2) VH: EVQLLESGGGLVQPGGSLRLSCAASGFDFSDYEMSWVRQAPGKGLEWVSSITSEGGSTYYADSVKGRFTISRDNSKNTLYLQMNSLRAEDTAVYYCAKPDVLFDYWGQGTLVTVSS VL: DIQMTQSPSSLSASVGDRVTITCKASQHVITHVTWYQQKPGKAPKLLIYGTSDLQSGVPSRFSGSGSGTDFTLTISSLQPEDFATYYCQQSNSWPYTFGQGTKVEIK
0.4 ratio	CD40L-171 (antibody, V domains shown, IgG2) VH: EVQLLESGGGLVQPGGSLRLSCAASGFDFSDYEMSWVRQAPGKGLEWVSSITSEGGSTYYADSVKGRFTISRDNSKNTLYLQMNSLRAEDTAVYYCAKPDQFFDYWGQGTLVTVSS VL: DIQMTQSPSSLSASVGDRVTITCRASSSVSYMHWYQQKPGKAPKLLIYQNDKRPSGVPSRFSGSGSGTDFTLTISSLQPEDFATYYCQQHYSPSHTFGQGTKVEIK
9.7 ratio	CD40L-191 (antibody, V domains shown, IgG2) VH: EVQLLESGGGLVQPGGSLRLSCAASGFDFSDYEMSWVRQAPGKGLEWVSSITSEGGSTYYADSVKGRFTISRDNSKNTLYLQMNSLRAEDTAVYYCAKPDVLFDYWGQGTLVTVSS VL: DIQMTQSPSSLSASVGDRVTITCSGNKLGDKYASWYQQKPGKAPKLLIYDTSKVASGVPSRFSGSGSGTDFTLTISSLQPEDFATYYCQQSYETPLTFGQGTKVEIK
4.3 ratio	CD40L-180 (antibody, V domains shown, IgG2) VH: EVQLLESGGGLVQPGGSLRLSCAASGFDFSDYEMSWVRQAPGKGLEWVSSITSEGGSTYYADSVKGRFTISRDNSKNTLYLQMNSLRAEDTAVYYCAKPDVLFDYWGQGTLVTVSS VL: DIQMTQSPSSLSASVGDRVTITCRASQSILSYLNWYQQKPGKAPKLLIYGASSLESGVPSRFSGSGSGTDFTLTISSLQPEDFATYYCQQTYDTPLTFGQGTKVEIK
0.4 ratio	CD40L-175 (antibody, V domains shown, IgG2) VH: EVQLLESGGGLVQPGGSLRLSCAASGFDFSDYEMSWVRQAPGKGLEWVSSITSEGGSTYYADSVKGRFTISRDNSKNTLYLQMNSLRAEDTAVYYCAKPDKDFDYWGQGTLVTVSS VL: DIQMTQSPSSLSASVGDRVTITCRASQTIGDYLNWYQQKPGKAPKLLIYDASNLQSGVPSRFSGSGSGTDFTLTISSLQPEDFATYYCQQSYELPLTFGQGTKVEIK

Continued, binder first:

Binder	100 nM FACS (MFI Ratio)
CD40L-162 (antibody, V domains shown, IgG2) VH: EVQLLESGGGLVQPGGSLRLSCAASGGYNFRDYMHWVRQAPGKGLEWVAEIRNKANNHATKYADSVKGRFTISRDNSKNTLYLQMNSLRAEDTAVYYCAKNLGQGFDYWGQGTLVTVSS VL: DIQMTQSPSSLSASVGDRVTITCRTSQDISNYLNWYQQKPGKAPKLLIYATSNLASGVPSRFSGSGSGTDFTLTISSLQPEDFATYYCQQSYSSAPMFGQGTKVEIK	0.3 ratio
CD40L-158 (antibody, V domains shown, IgG2) VH: EVQLLESGGGLVQPGGSLRLSCAASGGYNFRDYMHWVRQAPGKGLEWVSSIGRHGGRTYYADSVKGRFTISRDNSKNTLYLQMNSLRAEDTAVYYCAKDLGQGFDYWGQGTLVTVSS VL: DIQMTQSPSSLSASVGDRVTITCRASQDVSSGVAWYQQKPGKAPKLLIYQMSHLASGVPSRFSGSGSGTDFTLTISSLQPEDFATYYCSSQDTVTRVLGQGTKVEIK	1.5 ratio
CD40L-167 (antibody, V domains shown, IgG2) VH: EVQLLESGGGLVQPGGSLRLSCAASGGYNFRDYMHWVRQAPGKGLEWVSSISNSGGSTYYADSVKGRFTISRDNSKNTLYLQMNSLRAEDTAVYYCAKNLGQGFDYWGQGTLVTVSS VL: DIQMTQSPSSLSASVGDRVTITCRASESVEYHGTSLMHWYQQKPGKAPKLLIYGTSNLESGVPSRFSGSGSGTDFTLTISSLQPEDFATYYCQQVVWRPFTFGQGTKVEIK	1.4 ratio
CD40L-159 (antibody, V domains shown, IgG2) VH: EVQLLESGGGLVQPGGSLRLSCAASGFDFSDYEMSWVRQAPGKGLEWVSSITSEGGSTYYADSVKGRFTISRNNSKNTLYLQMNSLRAEDTAVYYCAKPDVLFDYWGQGTLVTVSS VL: DIQMTQSPSSLSASVGDRVTITCRASQDISNYLNWYQQKPGKAPKLLIYGKKNRPSGVPSRFSGSGSGTDFTLTISSLQPEDFATYYCQQGYTRTDIDNTFGQGTKVEIK	0.3 ratio
CD40L-169 (antibody, V domains shown, IgG2) VH: EVQLLESGGGLVQPGGSLRLSCAASGFDFSDYEMSWVRQAPGKGLEWVSSITSEGGSTYYADSVKGRFTISRDNSKNTLYLQMNSLRAEDTAVYYCAKPDVLFDYWGQGTLVTVSS VL: DIQMTQSPSSLSASVGDRVTITCSGDKLGDKYAYWYQQKPGKAPKLLIYFTSTLAAGVPSRFSGSGSGTDFTLTISSLQPEDFATYYCQQSYSSAPTFGQGTKVEIK	0.4 ratio
CD40L-164 (antibody, V domains shown, IgG2) VH: EVQLLESGGGLVQPGGSLRLSCAASGFDFSDYEMSWVRQAPGKGLEWVSSITSEGGSTYYADSVKGRFTISRDNSKNTLYLQMNSLRAEDTAVYYCAKPDVLFDYWGQGTLVTVSS VL: DIQMTQSPSSLSASVGDRVTITCRASSSVSYMHWYQQKPGKAPKLLIYAASDLESGVPSRFSGSGSGTDFTLTISSLQPEDFATYYCSQSTHVPTFGQGTKVEIK	0.4 ratio
CD40L-168 (antibody, V domains shown, IgG2) VH: EVQLLESGGGLVQPGGSLRLSCAASGFDFSDYEMSWVRQAPGKGLEWVSSITSEGGSTYYADSVKGRFTISRDNSKNTLYLQMNSLRAEDTAVYYCAKPDVLFDYWGQGTLVTVSS VL: DIQMTQSPSSLSASVGDRVTITCSGDNLGDKYVHWYQQKPGKAPKLLIYGKNIRPSGVPSRFSGSGSGTDFTLTISSLQPEDFATYYCQSGSSSANAVFGQGTKVEIK	0.2 ratio
CD40L-165 (antibody, V domains shown, IgG2) VH: EVQLLESGGGLVQPGGSLRLSCAASGFDFSDYEMSWVRQAPGKGLEWVSSITSEGGSTYYADSVKGRFTISRDNSKNTLYLQMNSLRAEDTAVYYCAKPDVLFDYWGQGTLVTVSS VL: DIQMTQSPSSLSASVGDRVTITCRTSQDISNYLNWYQQKPGKAPKLLIYGASTLQSGVPSRFSGSGSGTDFTLTISSLQPEDFATYYCQQSYDNPLTFGQGTKVEIK	0.5 ratio
CD40L-160 (antibody, V domains shown, IgG2) VH: EVQLLESGGGLVQPGGSLRLSCAASGFDFSDYEMSWVRQAPGKGLEWVSSITSEGGSTYYADSVKGRFTISRDNSKNTLYLQMNSLRAEDTAVYYCAKPDVLFDYWGQGTLVTVSS VL: DIQMTQSPSSLSASVGDRVTITCRASQDVSSGVAWYQQKPGKAPKLLIYGKKNRPSGVPSRFSGSGSGTDFTLTISSLQPEDFATYYCQAWDRDTGVFGQGTKVEIK	0.3 ratio
CD40L-161 (antibody, V domains shown, IgG2) VH: EVQLLESGGGLVQPGGSLRLSCAASGFDFSDYEMSWVRQAPGKGLEWVSSITSEGGSTYYADSVKGRFTISRDNSKNTLYLQMNSLRAEDTAVYYCAKPDVLFDYWGQGTLVTVSS VL: DIQMTQSPSSLSASVGDRVTITCRASQDVSSGVAWYQQKPGKAPKLLIYATSTLQSGVPSRFSGSGSGTDFTLTISSLQPEDFATYYCQQSFSVPAFGQGTKVEIK	0.9 ratio
CD40L-166 (antibody, V domains shown, IgG2) VH: EVQLLESGGGLVQPGGSLRLSCAASGFDFSDYEMSWVRQAPGKGLEWVSSITSEGGSTYYADSVKGRFTISRDNSKNTLYLQMNSLRAEDTAVYYCAKPDVLFDYWGQGTLVTVSS VL: DIQMTQSPSSLSASVGDRVTITCRASQSIISYVNWYQQKPGKAPKLLIYGASNLHSGVPSRFSGSGSGTDFTLTISSLQPEDFATYYCQQSYSTPTFGQGTKVEIK	1.1 ratio
CD40L-156 (antibody, V domains shown, IgG2) VH: EVQLLESGGGLVQPGGSLRLSCAASGFMFSWYDMGWVRQAPGKGLEWVSSIDWHGWVTYYADSVKGRFTISRDNSKNTLYLQMNSLRAEDTAVYYCAKAYYGGFDYWGQGTLVTVSS VL: DIQMTQSPSSLSASVGDRVTITCRASQPIGPDLLWYQQKPGKAPKLLIYDNTNRPSGVPSRFSGSGSGTDFTLTISSLQPEDFATYYCQQSQAAPLTFGQGTKVEIK	1.3 ratio
